± gives the uncertainty stated by the source.
Assay: self-splicing fitness, log relative to wild type (ln ratio); higher = more splicing; Tetrahymena group I intron in knt gene, E. coli kanamycin selection, DiMSum; sequences stand for … in CUCUCU…GGAGGGAAAAGUUAUCAGGCAUGCACCUGGUAGCUAGUCUUUAAACCAAUAGAUUGCAUCGGUUUAAAAGGCAAGACCGUCAAAUUGCGGGAAAGGGGUCAACAGCCGUUCAGUACCAAGUCUCAGGGGAAACUUUGAGAUGGCCUUGCAAAGGGUAUGGUAAUAAGCUGACGGACAUGGUCCUAACCACGCAGCCAAGUCCUAAGUCAACAGAUCUUCUGUUGAUAUGGAUGCAGUUCACAGACUAAAUGUCGGUCGGGGAAGAUGUAUUCUUCUCAUAAGAUAUAGUCGGACCUCUCCUUAAUGGGAGCUAGCGGAUGAAGUGAUGCAACACUGGAGCCGCUGGGAACUAAUUUGUAUGCGAAAGUAUAUUGAUUAGUUUUGGAGUACUCGUGGUCG
Summary of the method: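 Six replicate transformations of E. coli BL21(DE3) with a pET-22b(+) library were grown overnight at 37°C or 30°C. The library randomised all eight P1ex-region intron nucleotides, the intron lying in the knt kanamycin-resistance gene, and plates were LB agar with or without 25 μg/mL kanamycin plus 100 μg/mL carbenicillin, 50 μM IPTG and 0.2% rhamnose. Pooled colonies were amplicon-sequenced on an Illumina HiSeq 2500, and fitness is the DiMSum error-weighted combination of wild-type-normalised replicate fold changes, kanamycin versus none.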

Sequence | self-splicing fitness (ln) (30 °C) | self-splicing fitness (ln) (37 °C)
UCGCAGCAAUAUUACGCGCU | -1.23 ± 0.12 | -1.19 ± 0.21
UCGCAGCAAUAUUACGCGUU | -4.2 ± 0.27 | -2.38 ± 0.13
UCGCAGCAAUAUUACGCUAG | -4.54 ± 0.25 | -2.18 ± 0.2
UCGCAGCAAUAUUACGCUGG | -1.76 ± 0.16 | -2 ± 0.21
UCGCAGCAAUAUUACGCUUC | -1.8 ± 0.34 | -1.68 ± 0.44
UCGCAGCAAUAUUACGCUUG | -1.93 ± 0.14 | -1.83 ± 0.15
UCGCAGCAAUAUUACGGAAG | -2.74 ± 0.25 | -1.74 ± 0.22
UCGCAGCAAUAUUACGGAGA | -2.75 ± 0.13 | -1.02 ± 0.1
UCGCAGCAAUAUUACGGAUC | -3.82 ± 0.35 | –
UCGCAGCAAUAUUACGGCUU | -1.16 ± 0.08 | 0.404 ± 0.12
UCGCAGCAAUAUUACGGGUU | -2.63 ± 0.14 | -2.38 ± 0.16
UCGCAGCAAUAUUACGGUUA | -0.15 ± 0.086 | -0.398 ± 0.087
UCGCAGCAAUAUUACGGUUU | -3.17 ± 0.12 | -1.72 ± 0.12
UCGCAGCAAUAUUACGUACA | -1.62 ± 0.15 | -0.509 ± 0.12
UCGCAGCAAUAUUACGUAGA | -0.804 ± 0.065 | -0.0374 ± 0.079
UCGCAGCAAUAUUACGUCUC | – | -1.97 ± 0.27
UCGCAGCAAUAUUACGUCUG | – | -1.97 ± 0.18
UCGCAGCAAUAUUACGUUCU | -3.58 ± 0.18 | -2.31 ± 0.11
UCGCAGCAAUAUUACGUUGU | -2.56 ± 0.2 | -1.73 ± 0.21
UCGCAGCAAUAUUACGUUUA | -1.78 ± 0.12 | -1.11 ± 0.11

Sequence | self-splicing fitness (ln) (30 °C) | self-splicing fitness (ln) (37 °C)
UCGGAGCAAUAUUACGAAUU | -2.9 ± 0.26 | -2.69 ± 0.28
UCGGAGCAAUAUUACGAGUG | -2.47 ± 0.18 | -2.48 ± 0.19
UCGGAGCAAUAUUACGAUCA | – | -1.23 ± 0.48
UCGGAGCAAUAUUACGAUGA | -0.946 ± 0.15 | -1.11 ± 0.16
UCGGAGCAAUAUUACGAUUC | -0.553 ± 0.26 | -0.938 ± 0.24
UCGGAGCAAUAUUACGCGCA | -0.975 ± 0.23 | –
UCGGAGCAAUAUUACGCGUA | -1.73 ± 0.26 | -1.38 ± 0.21
UCGGAGCAAUAUUACGCGUC | -2.14 ± 0.47 | –
UCGGAGCAAUAUUACGCUAU | -3.09 ± 0.34 | -2.48 ± 0.36
UCGGAGCAAUAUUACGGGGA | -1.76 ± 0.2 | -1.13 ± 0.19
UCGGAGCAAUAUUACGUAAA | -3.16 ± 0.31 | -1.55 ± 0.29
UCGGAGCAAUAUUACGUCAA | – | -2.12 ± 0.38
UCGGAGCAAUAUUACGUUUA | -2.32 ± 0.29 | -2.35 ± 0.42
UCGUAGCAAUAUUACGAGAA | -2.57 ± 0.49 | -1.61 ± 0.41
UCGUAGCAAUAUUACGAGUG | -3.62 ± 0.32 | -3.09 ± 0.3
UCGUAGCAAUAUUACGAGUU | -3.76 ± 0.25 | -2.5 ± 0.2
UCGUAGCAAUAUUACGCGGC | – | -2.15 ± 0.46
UCGUAGCAAUAUUACGCGGG | -3.63 ± 0.37 | -0.254 ± 0.15
UCGUAGCAAUAUUACGCUAU | -2.37 ± 0.45 | -2.88 ± 0.4
UCGUAGCAAUAUUACGCUCG | -1.9 ± 0.16 | -1.2 ± 0.23
